Key:
DYNLT1 (Mus musculus) = DYNLT1 (Mus musculus) (UniProt P51807); assay: NMR; conditions: cited from earlier work
[1] = biological target: FITC-labelled ARHGEF2 peptide 142-157 phosphorylated on Ser151 (not stated (human or mouse cDNA cloned)); assay: MST
[2] = biological target: FITC-labelled ARHGEF2 peptide 876-891 phosphorylated on Ser885 (not stated (human or mouse cDNA cloned)); assay: MST

Sequence of ARHGEF2 peptide 133-161 (Q60875 133-161): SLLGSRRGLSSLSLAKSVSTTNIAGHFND
Sequence of DYNLT1 (Mus musculus) (P51807 whole entry): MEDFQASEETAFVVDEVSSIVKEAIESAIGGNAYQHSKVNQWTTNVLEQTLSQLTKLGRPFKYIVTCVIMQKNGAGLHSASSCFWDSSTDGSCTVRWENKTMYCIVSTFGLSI

Row | Kd [1] [µM] | Kd [2] [µM] | Substance | Kd (DYNLT1 (Mus musculus)) [µM]
1 |  |  | ARHGEF2 peptide 133-161 (from UniProt Q60875) | 80
2 | 11.6 | 2.3 | GST-14-3-3 (from UniProt P63101 1-245) (natural protein) | 

Source: publication PMC6504561
